Source: patent US20250170227A1 (published 2025)
Read-outs that look alike come from different tables or passages of the source.

How the values were obtained:
C1s [1] = assay: C1s activity inhibition
C1s [2] = assay: C1s activity inhibition; remark: listed apart in the source

IC50 (C1s [1]): 1.7 nM
IC50 (C1s [2]): 1.8 nM
B1: rC1inh (other)
chain: NPNATSSSSQDPESLQDRGEGKVATTVISKMLFVEPILEVSSLPTTNSTTNSATKITANTTDEPTTQPTTEPTTQPTIQPTQPTTQLPTDSPTQPTTGSFCPGPVTLCSDLESHSTEAVLGDALVDFSLKLYHAFSAMKKVETNMAFSPFSIASLLTQVLLGAGENTKTNLESILSYPKDFTCVHQALKGFTTKGVTSVSQIFHSPDLAIRDTFVNASRTLYSSSPRVLSNNSDANLELINTWVAKNTNNKISRLLDSLPSDTRLVLLNAIYLSAKWKTTFDPKKTRMEPFHFKNSVIKVPMMNSKKYPVAHFIDQTLKAKVGQLQLSHNLSLVILVPQNLKHRLEDMEQALSPSVFKAIMEKLEMSKFQPTLLTLPRIKVTTSQDMLSIMEKLEFFDFSYDLNLCGLTEDPDLQVSAMQHQTVLELTETGVEAAAASAISVARTLLVFEVQQPFLFVLWDQQHKFPVFMGRVYDPRA
